Experimental data from patent publication EP4737482A1 (Atheon Bio, Inc., dated 2026).

T1: human MYCT1 (hMYCT1) (human, UniProt Q8N699 1-235, limits assumed)
T1 construct: also called MYC Target 1
T1 sequence: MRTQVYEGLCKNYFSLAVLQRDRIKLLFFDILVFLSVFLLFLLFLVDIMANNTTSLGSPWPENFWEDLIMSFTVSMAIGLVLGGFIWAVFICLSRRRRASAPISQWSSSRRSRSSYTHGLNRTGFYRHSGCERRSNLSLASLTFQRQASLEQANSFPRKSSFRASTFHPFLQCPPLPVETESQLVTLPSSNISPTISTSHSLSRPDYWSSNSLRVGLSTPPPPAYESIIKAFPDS

B1: 2B4-z15-uIgG1K (antibody, V domains shown)
VH: QVQLVQSGAEVKKPGASVKMSCKASGYTFTDYNMHWVRQAPGQGLEWIGYINPNNGGSSYNRKFKGRVTLTVDKSTRTAYMELRSLRSDDTAVYYCATRFDVWGQGTTVTVSS
VL: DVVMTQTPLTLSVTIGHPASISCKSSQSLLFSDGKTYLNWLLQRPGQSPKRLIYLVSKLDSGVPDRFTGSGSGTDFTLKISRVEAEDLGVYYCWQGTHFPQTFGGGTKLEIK
B2: 2B4-z10-uIgG1K (antibody, V domains shown)
VH: QVQLVQSGAEVKKPGASVKVSCKASGYTFTDYNMHWVRQAPGQGLEWMGYINPNNGGSSYNRKFKGRVTMTVDKSTRTAYMELRSLRSDDTAVYYCATRFDVWGQGTTVTVSS
VL: DVVMTQSPLSLPVTLGQPASISCKSSQSLLFSDGKTYLNWLQQRPGQSPRRLIYLVSKLDSGVPDRFSGSGSGTDFTLKISRVEAEDVGVYYCWQGTHFPQTFGGGTKVEIK
B3: 2B4-z11-uIgG1K (antibody, V domains shown)
VH: QVQLVQSGAEVKKPGASVKVSCKASGYTFTDYNMHWVRQAPGQGLEWMGYINPNNGGSSYNRKFKGRVTLTVDKSTRTAYMELRSLRSDDTAVYYCATRFDVWGQGTTVTVSS
VL: DVVMTQSPLSLPVTLGQPASISCKSSQSLLFSDGKTYLNWLQQRPGQSPRRLIYLVSKLDSGVPDRFSGSGSGTDFTLKISRVEAEDVGVYYCWQGTHFPQTFGGGTKVEIK
B4: 2B4-z7-uIgG1K (antibody, V domains shown)
VH: QVQLVQSGAEVKKPGASVKMSCKASGYTFTDYNMHWVRQAPGQGLEWMGYINPNNGGSSYNRKFKGRVTMTTDTSTSTAYMELRSLRSDDTAVYYCATRFDVWGQGTTVTVSS
VL: DVVMTQSPLSLPVTLGQPASISCKSSQSLLFSDGKTYLNWLQQRPGQSPRRLIYLVSKLDSGVPDRFSGSGSGTDFTLKISRVEAEDVGVYYCWQGTHFPQTFGGGTKVEIK
B5: 2B4-z5-uIgG1K (antibody, V domains shown)
VH: QVQLVQSGAEVKKPGASVKVSCKASGYTFTDYNMHWVRQAPGQGLEWMGYINPNNGGSSYNRKFKGRVTMTTDKSTSTAYMELRSLRSDDTAVYYCATRFDVWGQGTTVTVSS
VL: DVVMTQSPLSLPVTLGQPASISCKSSQSLLFSDGKTYLNWLQQRPGQSPRRLIYLVSKLDSGVPDRFSGSGSGTDFTLKISRVEAEDVGVYYCWQGTHFPQTFGGGTKVEIK
B6: 2B4-z12-uIgG1K (antibody, V domains shown)
VH: QVQLVQSGAEVKKPGASVKMSCKASGYTFTDYNMHWVRQAPGQGLEWMGYINPNNGGSSYNRKFKGRVTLTVDKSTRTAYMELRSLRSDDTAVYYCATRFDVWGQGTTVTVSS
VL: DVVMTQSPLSLPVTLGQPASISCKSSQSLLFSDGKTYLNWLQQRPGQSPRRLIYLVSKLDSGVPDRFSGSGSGTDFTLKISRVEAEDVGVYYCWQGTHFPQTFGGGTKVEIK
B7: 2B4-z4-uIgG1K (antibody, V domains shown)
VH: QVQLVQSGAEVKKPGASVKVSCKASGYTFTDYNMHWVRQAPGQGLEWMGYINPNNGGSSYNRKFKGRVTMTVDTSTSTAYMELRSLRSDDTAVYYCATRFDVWGQGTTVTVSS
VL: DVVMTQSPLSLPVTLGQPASISCKSSQSLLFSDGKTYLNWLQQRPGQSPRRLIYLVSKLDSGVPDRFSGSGSGTDFTLKISRVEAEDVGVYYCWQGTHFPQTFGGGTKVEIK
B8: 2B4-z6-uIgG1K (antibody, V domains shown)
VH: QVQLVQSGAEVKKPGASVKVSCKASGYTFTDYNMHWVRQAPGQGLEWMGYINPNNGGSSYNRKFKGRVTMTTDTSTRTAYMELRSLRSDDTAVYYCATRFDVWGQGTTVTVSS
VL: DVVMTQSPLSLPVTLGQPASISCKSSQSLLFSDGKTYLNWLQQRPGQSPRRLIYLVSKLDSGVPDRFSGSGSGTDFTLKISRVEAEDVGVYYCWQGTHFPQTFGGGTKVEIK
B9: 2B4-z8-uIgG1K (antibody, V domains shown)
VH: QVQLVQSGAEVKKPGASVKVSCKASGYTFTDYNMHWVRQAPGQGLEWIGYINPNNGGSSYNRKFKGRVTMTTDTSTSTAYMELRSLRSDDTAVYYCATRFDVWGQGTTVTVSS
VL: DVVMTQSPLSLPVTLGQPASISCKSSQSLLFSDGKTYLNWLQQRPGQSPRRLIYLVSKLDSGVPDRFSGSGSGTDFTLKISRVEAEDVGVYYCWQGTHFPQTFGGGTKVEIK
B10: 2B4-z3-uIgG1K (antibody, V domains shown)
VH: QVQLVQSGAEVKKPGASVKVSCKASGYTFTDYNMHWVRQAPGQGLEWMGYINPNNGGSSYNRKFKGRVTLTTDTSTSTAYMELRSLRSDDTAVYYCATRFDVWGQGTTVTVSS
VL: DVVMTQSPLSLPVTLGQPASISCKSSQSLLFSDGKTYLNWLQQRPGQSPRRLIYLVSKLDSGVPDRFSGSGSGTDFTLKISRVEAEDVGVYYCWQGTHFPQTFGGGTKVEIK
B11: 2B4-z13-uIgG1K (antibody, V domains shown)
VH: QVQLVQSGAEVKKPGASVKMSCKASGYTFTDYNMHWVRQAPGQGLEWIGYINPNNGGSSYNRKFKGRVTLTVDKSTRTAYMELRSLRSDDTAVYYCATRFDVWGQGTTVTVSS
VL: DVVMTQSPLSLPVTLGQPASISCKSSQSLLFSDGKTYLNWLQQRPGQSPRRLIYLVSKLDSGVPDRFSGSGSGTDFTLKISRVEAEDVGVYYCWQGTHFPQTFGGGTKVEIK
B12: 2B4 parent antibody (antibody, V domains shown)
VH: EVQLQQSGPELVKPGASVKMSCKASGYTFTDYNMHWVRQSHGKGLEWIGYINPNNGGSSYNRKFKGKATLTVNKSSRSASMELRSLTSEDSAVYYCATRFDVWGTGTTVTVSS
VL: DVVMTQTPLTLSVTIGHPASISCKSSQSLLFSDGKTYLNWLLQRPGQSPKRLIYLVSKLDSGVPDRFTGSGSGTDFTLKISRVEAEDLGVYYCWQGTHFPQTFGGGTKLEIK
notes: Mouse parental variable domains; also called parent antibody (2B4); 2B4 clone
B13: 2B4-p4-uIgG1K (antibody, V domains shown)
VH: EVQLQQSGPELVKPGASVKMSCKASGYTFTDYNMHWVRQSHGKGLEWIGYINPNNGGSSYNRKFKGKATLTVNKSSRSASMELRSLTSEDSAVYYCATRFDVWGTGTTVTVSS
VL: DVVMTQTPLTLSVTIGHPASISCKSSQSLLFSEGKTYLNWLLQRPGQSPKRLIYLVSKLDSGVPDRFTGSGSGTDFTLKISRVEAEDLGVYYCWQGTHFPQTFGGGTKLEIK
B14: 2B4-p6-uIgG1K (antibody, V domains shown)
VH: EVQLQQSGPELVKPGASVKMSCKASGYTFTDYNMHWVRQSHGKGLEWIGYINPNNGGSSYNRKFKGKATLTVNKSSRSASMELRSLTSEDSAVYYCATRFDVWGTGTTVTVSS
VL: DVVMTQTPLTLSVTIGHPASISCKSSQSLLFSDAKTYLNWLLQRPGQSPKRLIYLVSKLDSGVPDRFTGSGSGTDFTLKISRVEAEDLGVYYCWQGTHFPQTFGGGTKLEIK
B15: 2B4-p3-uIgG1K (antibody, V domains shown)
VH: EVQLQQSGPELVKPGASVKMSCKASGYTFTDYNMHWVRQSHGKGLEWIGYINPNNAGSSYNRKFKGKATLTVNKSSRSASMELRSLTSEDSAVYYCATRFDVWGTGTTVTVSS
VL: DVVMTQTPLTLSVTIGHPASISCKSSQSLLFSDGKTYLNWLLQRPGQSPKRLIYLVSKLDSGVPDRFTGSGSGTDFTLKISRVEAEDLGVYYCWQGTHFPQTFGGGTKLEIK
B16: 2B4-p2-uIgG1K (antibody, V domains shown)
VH: EVQLQQSGPELVKPGASVKMSCKASGYTFTDYNMHWVRQSHGKGLEWIGYINPNSGGSSYNRKFKGKATLTVNKSSRSASMELRSLTSEDSAVYYCATRFDVWGTGTTVTVSS
VL: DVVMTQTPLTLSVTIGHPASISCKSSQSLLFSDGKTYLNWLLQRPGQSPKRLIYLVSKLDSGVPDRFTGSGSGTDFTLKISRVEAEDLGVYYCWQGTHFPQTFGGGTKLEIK
B17: 2B4-p1-uIgG1K (antibody, V domains shown)
VH: EVQLQQSGPELVKPGASVKMSCKASGYTFTDYNMHWVRQSHGKGLEWIGYINPNQGGSSYNRKFKGKATLTVNKSSRSASMELRSLTSEDSAVYYCATRFDVWGTGTTVTVSS
VL: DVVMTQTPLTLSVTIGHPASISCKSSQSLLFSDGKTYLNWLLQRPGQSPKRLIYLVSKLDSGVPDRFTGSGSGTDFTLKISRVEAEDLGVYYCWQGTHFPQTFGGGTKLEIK
B18: 11B6-z10-p3-uIgG1K (antibody, V domains shown)
VH: EVQLVESGGGLVKPGGSLRLSCAASGFTFSDFGIHWVRQAPGKGLEWVGYISSGSRTIHYADTVKGRFTISRDNAKNSLYLQMNSLRAEDTAVYYCARRDWDPEWLAYWGQGTLVTVSS
VL: DVVMTQSPLSLPVTPGEPASISCRSSLSLVHSNAHTYLHWYLQKPGQSPQLLIYKVSNRFSGVPDRFSGSGSGTDFTLKISRVEAEDVGVYFCSQSTHVPFTFGQGTKLEIK
B19: 11B6-z12-p3-uIgG1K (antibody, V domains shown)
VH: EVQLVESGGGLVKPGGSLRLSCAASGFTFSDFGIHWVRQAPGKGLEWVGYISSGSRTIHYADTVKGRFTISRDNAKNSLYLQMNSLRAEDTAIYYCARRDWDPEWLAYWGQGTLVTVSS
VL: DVVMTQSPLSLPVTPGEPASISCRSSLSLVHSNAHTYLHWYLQKPGQSPKLLIYKVSNRFSGVPDRFSGSGSGTDFTLKIRRVEAEDVGVYFCSQSTHVPFTFGQGTKLEIK
B20: 11B6-z16-p3-uIgG1K (antibody, V domains shown)
VH: EVQLVESGGGLVKPGGSLRLSCAASGFTFSDFGIHWVRQAPGKGLEWVGYISSGSRTIHYADTVKGRFTISRDNAKNSLYLQMNSLRAEDTAVYYCARRDWDPEWLAYWGQGTLVTVSS
VL: DIVMTQSPLSLPVTPGEPASISCRSSLSLVHSNAHTYLHWYLQKPGQSPKLLIYKVSNRFSGVPDRFSGSGSGTDFTLKISRVEAEDVGVYFCSQSTHVPFTFGQGTKLEIK
notes: also called hzATN001; ATN001
B21: 2B4-z2-p7-uIgG1K (antibody, V domains shown)
VH: QVQLVQSGAEVKKPGASVKVSCKASGYTFTDYNMHWVRQAPGQGLEWMGYINPNSGGSSYNRKFKGRVTMTTDTSTSTAYMELRSLRSDDTAVYYCATRFDVWGQGTTVTVSS
VL: DVVMTQSPLSLPVTLGQPASISCKSSQSLLFSDAKTYLNWLQQRPGQSPRRLIYLVSKLDSGVPDRFSGSGSGTDFTLKISRVEAEDVGVYYCWQGTHFPQTFGGGTKVEIK
B22: 2B4-z8-p7-uIgG1K (antibody, V domains shown)
VH: QVQLVQSGAEVKKPGASVKVSCKASGYTFTDYNMHWVRQAPGQGLEWIGYINPNSGGSSYNRKFKGRVTMTTDTSTSTAYMELRSLRSDDTAVYYCATRFDVWGQGTTVTVSS
VL: DVVMTQSPLSLPVTLGQPASISCKSSQSLLFSDAKTYLNWLQQRPGQSPRRLIYLVSKLDSGVPDRFSGSGSGTDFTLKISRVEAEDVGVYYCWQGTHFPQTFGGGTKVEIK

Each binder was assayed against T1, human MYCT1 (hMYCT1) (assay: SPR (Biacore 8K), antibody captured via anti-human Fc IgG, MYCT1 as analyte, steady-state affinity model).
Binder B1 has a Kd of 0.617 µM. With B2 the Kd was 0.456 µM. In the case of B3, the Kd is reported as 0.449 µM. B4 was tested, and the Kd was 0.382 µM. In the case of B5, the Kd is reported as 0.351 µM. With B6 the Kd was 0.428 µM. B7 was tested, and the Kd was 0.354 µM. With B8 the Kd was 0.447 µM. B9 was tested, and the Kd was 0.321 µM. B10 gave a Kd of 0.332 µM. Work on B11 yielded a Kd of 0.443 µM. For B12, the Kd was 0.181 µM.

Biological target: T1, human MYCT1 (hMYCT1)
Test: as above
Remark: another data set of the same source
With B12 the Kd was 0.273 µM. In the case of B13, the Kd is reported as > 0.5 µM. B14 gave a Kd of 0.288 µM. With B15 the Kd was 0.27 µM. In the case of B16, the Kd is reported as 0.224 µM. B17 was tested, and the Kd was 0.264 µM.

These binders were tested against T1, human MYCT1 (hMYCT1) (assay: SPR full kinetics, multicycle, antibody captured via anti-human Fc IgG, MYCT1 0.625-10 nM as analyte, 1:1 binding model).
Work on B18 yielded a Kd of 0.00334 µM, a koff of 0.0122 s⁻¹ and a kon of 3.65e+06 M⁻¹ s⁻¹. B19 was tested, and the Kd was 0.00235 µM, the koff was 0.00786 s⁻¹ and the kon was 3.35e+06 M⁻¹ s⁻¹. For B20, the Kd was 0.00253 µM, the koff was 0.00841 s⁻¹ and the kon was 3.32e+06 M⁻¹ s⁻¹.

Each binder was assayed against T1, human MYCT1 (hMYCT1) (assay: SPR full kinetics (Biacore 8K), antibody captured via anti-human Fc IgG, MYCT1 as analyte, steady-state affinity model).
B21 was tested, and the Kd was 0.484 µM. Binder B22 has a Kd of 0.586 µM. B12 showed a Kd of 0.281 µM.
